Data taken from paper PMC7026639.
Like-named read-outs stand apart in the source and are kept apart here.

B1: 13-bp iodo oligo (dsDNA)
DNA 1: TCCAAGCGCAACG
DNA 2: CGUTGCGCTUGGA
modifications: 5-iodo-uridine at positions 3 and 10 of strand 2 (printed as I, written as U)
B2: 14-bp cognate oligo (dsDNA)
DNA 1: TCCAAGCGCAACAG
DNA 2: CTGTTGCGCTTGGA

Tests used:
[1] = target: T1, HhaI restriction endonuclease (R.HhaI) (Haemophilus haemolyticus NEB129 (now …, UniProt A0ABF7PI58 1-258)); experiment: X-ray crystallography
[2] = target: T1, HhaI restriction endonuclease (R.HhaI); experiment: X-ray crystallography; remark: listed apart in the source

Binder | binding result [1] | binding result [2]
B1 | binds | –
B2 | – | binds
